Measurements as given in the RNAGym collection of RNA variant scans (doi:10.1073/pnas.2313332121).

B1: TPR t1 (parent)
chain: GACCAAUCUGCCCUCAGAGCUCGAGAACAUCUUCGGAUGCAGAGGAGGCAGGCUUCGGUGGCGCGAUAGCGCCAACGUCCUCAACCUCCAAUGCAUCCCACCACAUGAUGAUGCCUGAAGAGCCUUGGUUUUUUG

Variants of: B1
Assay: polymerase ribozyme fitness, log enrichment relative to wild type (log ratio); higher = more active; in vitro selection for triplet polymerase activity
Summary of the method: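 One round of in vitro selection, in triplicate, was applied to PCR-built, transcribed mutant libraries of each subunit of a heterodimeric triplet polymerase ribozyme. The steps were annealing with a biotinylated primer, partner subunit and triplets, incubation frozen at −7 °C, gel excision of extended constructs, streptavidin-bead capture and RT-PCR. Fitness is the logarithm, base 2, of genotype enrichment over wild-type enrichment from inverse-variance-weighted replicate averages of Illumina-sequenced inputs and outputs, keeping genotypes with ≥10 input reads and ≥1 read per output.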

Variant	polymerase ribozyme fitness (log ratio)
GACCAAUCUGGCCUCAGAGCUCGAGAACAUCUUCGGAUGCCGAGGAGGCAGGCUUCGGUGGCGCGAUAGCGCCAACGUCCUCAACCUCCAAUGCAUCCCACCACAUGAUGAUGCCUGAAGAGCCUUGGUUUUUUG [C11G A41C]	-0.501
GACCAAUCUGGCCUCAGAGCUCGAGAACAUCUUCGGUUGCUGAGGAGGCAGGCUUCGGUGGCGCGAUAGCGCCAACGUCCUCAACCUCCAAUGCCUCCCACCACACGAUGAUGCCUGAAGAGCAUUGGUUUUUUG [C11G A37U A41U A95C U106C C124A]	-1.05
GACCAAUCUGGCCUCAGAGCUCGAGAACAUCUUCGGAUGCCGAGGAGGCAGGCUUUGGUGGCGCGAUAGCGCCAACGUCCUCAACCUCCAAUACAUCCCACCACAUGAUGAUGCCUGAAGAGGCUUGGUUUUUUU [C11G A41C C56U G93A C123G G135U]	-3.49
GACCAAUCUGGCCUCAGAGCUCGAGAACAUCUUCGGUUGCAGAGGAGGCAGGCUUCGGUGGCGCGAUAACGCCAACGUCCUCCACCUCCAAUGCAUCCCACCACAUGAUGAUGCCUGAAGCGCCUUGGUUUUUUG [C11G A37U G69A A83C A121C]	-1.05
GACCAAUCUGGACUCAGAGCUCGAGAACAUCUUCGGAUGCAGAGGAGGCAGGCUUCGGUGGCACGAUAGCGCCAACGUCCUCAACCUCCAAUGCAUCCCACCACAUGAUGAUGCCUGAAGAGCCUUGGUUUUUUG [C11G C12A G63A]	-0.541
GACCAAUCUGGCCUCAGAGCUCGAGAACAUCUUCGGCUGCAGAGGAGGCAGGCUUCGGUGGCGCGAUAGCGCCAACGUCCUCAACCUGCAAUGCAUCCCACCACAUGAUGAUGCCUGAAGAGCCUUGGUUUUUUG [C11G A37C C88G]	-1.94
GACCAAUCUGGCCUCAGAGCUCGAGAACUUCUUCGGAUGCAGAGGGGGCAGGCUUCGGUGGCGCGAUAGCGACAACGUCCUCAACCUCCAAUGCAUCCCCCCACAUGAUGAUGCCUGAUGAGCCUUGGUUUUUUG [C11G A29U A46G C72A A100C A119U]	-3.42
GACCAAUCUGGCCUCAGAGCUCGAGAACAUCUUCGGCUGCAGAGGAGGCAGGCUUCGGUGUCGCGAUAGCGCCAACGUCCUCAACCUCCAAUGCAUCCCACCACAUGAUGAUGCCUGAAGAGCCUUGGUUUUUUG [C11G A37C G61U]	-0.241
GACCAAUCUGGCCUCAGAGCUCGAGAACAUCUUCGGAUGCAGAGGAGGCCGGCUUCGGUGGCGCGAUAGCGCCAACGUCCUCAACCUCCAAUGCAUCCCACCACAUGAUGAUGCCUGAAGAGCCAUGGUUUUUUG [C11G A50C U125A]	-0.245
GACCAAUCUGGCCUCAGAGCUCGAGAACAUCUUCGGAUGCAGAGGAGGCAGGCUUCGGUGGCGCGUUAGCGCCAACGUCCUCAACCUCCAAUGCAUCCCACCACAUGAUGAUGCCUGAAGAGCCUUGGUUUUUUG [C11G A66U]	-0.995
GACCAAUCUGGCCUCAGAGCUCGAGAACAUCUUCGGAUGCGGAGGAGGCAGGCUUCGGUGGCGCGAUAGCGCGAACGUCCUCAACCUCCAAUGCAUCCCACCACAUGAUGAUGCCUGAAGAGCCUUGGUUUUUUG [C11G A41G C73G]	-0.55
GACCAAUCUGGCCUCAGAGCUCGAGAACAUCUUCGGAUGCAGAGGAGGCAGGCUUCGGUGGCGCGAUAGCGCCAACGUCCUCUACCUCCAAUGCAUCCCACCACACGAUGAUGCCUGAAGAGCCUUGGUUUUUUG [C11G A83U U106C]	-0.637
GACCAAUCUGGCCUCAGAGCUCGAGAACAUCUUCGGAUGCUGAGGACGCAGGCUUCGGAGGCGCGAUAGCGCCAACGUCCUCAACCUCCAAUGCAUCCCACCACAUGAUGAUGCCUGAAGAGCCUUGGUUUUUUG [C11G A41U G47C U59A]	-3.12
GACCAAUCUGGCCUCAGAGCUCGAGAACAUCUUCGGAUGCAGAGGAGGCCGGCUUCGGUGGCGCGAUAGCGCCAACGUCCUCAACCUCCAAGGCAUCCCACCACAUGAUGAUGACUGAAGACCCUUGGUUCUUUG [C11G A50C U92G C114A G122C U131C]	-3.35
GACCAAUCUGGACUCAGAGCUCGAGAACAUCUUCGGAUGUAGAGGAGGCAGGCUUCGGUGGCGCGAUAGCGCCAACGUCCUCAACCUCCAAUGCAUCCUACCACAUGAUGAUGCCUAAAGAGCGUUGGUUUUUUG [C11G C12A C40U C99U G117A C124G]	-6.76
GACCAAUCUGGCCUCAGAGCUCGAGAACAUCUUCGGAUGCUGAGGAGGCAGGCUUCGGUGGCGCGAUAGCCCCAACGUCCUCAACCUCCGAUGCAUCCCACCACAUGAUUAUGCCUGAAGAGCCUUGGUUUUUUA [C11G A41U G71C A90G G110U G135A]	-5.24
GACCAAUCUGGCCUCAGAGCUCGAGAACAUCUUCGGAUGCAGAGGAGGCAGGCUUCGGUGGCGCGAUAGCGCCAACGUCCUCAACCUCCAAUGCAUCCCACCACAUGAUGAUGCCUGAAGCGCCUUGGUUUUUUG [C11G A121C]	1.5
GACCAAUCUGGCCUCAGAGCUCGAGAACAUCUUCGGAUGCAGAGGAGGCAGGCUUCGGUGGCGCGAUAGCGCCAACGUCCUCAACCUCCAAUGCAUCCCACCACAUGAUGAUGCCUGAAGGGCCUUGGUUUUUUG [C11G A121G]	1.78
GACCAAUCUGGCCUCAGAGCUCGAGAACAUCUUCGGAUGCCGAGGAGGCAGGCUUCGGUGGCGCGAUAGCGCCAACGUCCUCAACCACCAAUGCAUCCCACCACAUGAUGAUGCCUGAAGAACCUUGGUUUUUUG [C11G A41C U87A G122A]	-0.672
GACCAAUCUGGCCUCAGAGCUCGAGAACAUCUUCGGAUGCAGAGGAGGCAGGCUUCGGUGGCGCGGUAGCGCCAACGUCCUCAACCUCCAAUGCAUCCCACCACAAGAUGAUGCCUGAAGAGCCUUGGUUUUUUG [C11G A66G U106A]	-0.837
GACCAAUCUGGCCUCAGAGCUCGAGAACAUCUUCGGAUGCAGGGGAGGCAGGCUUCGGAGGCGUGAUAGCGCCAACGUCCUCAACCUCCAAUGCAUCCCACCACAUGAUGAUGCCUGAAGAGCCUUGGUUUUUUG [C11G A43G U59A C64U]	-2.3
